Patent US20030028009A1

Target: integrin αvβ3 expressed on cells (human) (UniProt P06756)
Assay: cell-based or functional assay

Chain of integrin αvβ3 expressed on cells (human) (P06756 31-1048, chain 1 of 2): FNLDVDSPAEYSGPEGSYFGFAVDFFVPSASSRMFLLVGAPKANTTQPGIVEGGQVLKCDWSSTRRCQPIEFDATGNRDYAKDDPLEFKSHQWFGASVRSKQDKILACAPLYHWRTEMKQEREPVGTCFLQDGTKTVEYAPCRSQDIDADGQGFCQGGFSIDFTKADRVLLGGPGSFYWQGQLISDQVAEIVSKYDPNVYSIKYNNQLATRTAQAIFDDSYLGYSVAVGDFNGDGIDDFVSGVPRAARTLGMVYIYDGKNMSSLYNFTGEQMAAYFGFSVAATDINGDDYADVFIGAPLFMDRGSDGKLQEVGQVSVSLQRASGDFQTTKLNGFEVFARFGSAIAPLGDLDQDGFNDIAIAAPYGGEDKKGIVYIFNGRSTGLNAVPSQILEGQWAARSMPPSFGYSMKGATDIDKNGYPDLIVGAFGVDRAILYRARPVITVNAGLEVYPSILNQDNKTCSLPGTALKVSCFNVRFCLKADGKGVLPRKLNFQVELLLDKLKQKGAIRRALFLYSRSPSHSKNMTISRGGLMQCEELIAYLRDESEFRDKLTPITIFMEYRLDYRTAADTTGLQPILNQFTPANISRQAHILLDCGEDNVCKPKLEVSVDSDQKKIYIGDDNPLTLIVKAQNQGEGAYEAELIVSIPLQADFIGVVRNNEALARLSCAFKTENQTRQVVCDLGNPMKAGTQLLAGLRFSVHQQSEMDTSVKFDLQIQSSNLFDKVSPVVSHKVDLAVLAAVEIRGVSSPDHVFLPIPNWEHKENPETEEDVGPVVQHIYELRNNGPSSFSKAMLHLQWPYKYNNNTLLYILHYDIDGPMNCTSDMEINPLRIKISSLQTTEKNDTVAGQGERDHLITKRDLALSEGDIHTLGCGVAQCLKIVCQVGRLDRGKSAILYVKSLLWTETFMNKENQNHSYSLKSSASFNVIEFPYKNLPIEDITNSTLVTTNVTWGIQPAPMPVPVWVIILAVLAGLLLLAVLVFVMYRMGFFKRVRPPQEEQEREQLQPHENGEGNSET
Chain of integrin αvβ3 expressed on cells (human) (P05106 27-788, chain 2 of 2, further chain): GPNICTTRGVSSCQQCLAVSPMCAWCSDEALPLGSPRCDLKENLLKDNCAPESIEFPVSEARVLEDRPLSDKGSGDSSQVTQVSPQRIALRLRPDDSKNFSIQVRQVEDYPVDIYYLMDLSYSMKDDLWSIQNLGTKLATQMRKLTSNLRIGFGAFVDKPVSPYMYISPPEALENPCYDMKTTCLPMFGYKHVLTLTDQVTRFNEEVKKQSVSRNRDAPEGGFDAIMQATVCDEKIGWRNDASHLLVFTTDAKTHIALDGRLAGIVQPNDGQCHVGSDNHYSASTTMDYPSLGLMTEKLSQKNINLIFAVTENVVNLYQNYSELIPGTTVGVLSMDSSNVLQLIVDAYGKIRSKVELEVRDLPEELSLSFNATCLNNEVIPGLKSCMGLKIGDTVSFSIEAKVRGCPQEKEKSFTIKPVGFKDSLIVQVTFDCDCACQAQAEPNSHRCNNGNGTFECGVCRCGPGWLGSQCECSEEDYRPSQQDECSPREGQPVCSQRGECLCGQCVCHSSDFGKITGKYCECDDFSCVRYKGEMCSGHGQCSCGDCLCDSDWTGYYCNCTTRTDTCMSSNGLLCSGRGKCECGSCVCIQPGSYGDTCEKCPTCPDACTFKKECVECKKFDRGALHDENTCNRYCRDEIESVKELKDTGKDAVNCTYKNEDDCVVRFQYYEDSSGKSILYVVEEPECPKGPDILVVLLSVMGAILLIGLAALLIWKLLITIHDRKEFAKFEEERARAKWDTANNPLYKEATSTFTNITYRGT

inhibition of vitronectin-induced migration of endothelial cells (transwell): 60% | inhibitory concentration for 50% maximal adhesion (M21 cell adhesion to fibrinogen): 50 ng/mL
Substance: monoclonal antibody LM609 (murine IgG)
